Measured values taken from PMC3322874 (The Journal of Biological Chemistry, 2012).
Changes are numbered by the printed parent chain. In names and notes the source's numbering stands.

B1: R182K-AfUGM (enzyme, Aspergillus fumigatus)
chain: THPDISVDVLVIGAGPTGLGAAKRLNQIDGPSWMIVDSNETPGGLASTDVTPEGFLYDVGGHVIFSHYKYFDDCLDEALPKEDDWYTHQRISYVRCQGQWVPYPFQNNISMLPKEEQVKCIDGMIDAALEARVANTKPKTFDEWIVRMMGTGIADLFMRPYNFKVWAVPTTKMQCAWLGEKVAAPNLKAVTTNVILGKTAGNWGPNATFRFPARGGTGGIWIAVANTLPKEKTRFGEKGKVTKVNANNKTVTLQDGTTIGYKKLVSTMAVDFLAEAMNDQELVGLTKQLFYSSTHVIGVGVRGSRPERIGDKCWLYFPEDNCPFYRATIFSNYSPYNQPEASKKLPTMQLADGSRPQSTEAKEGPYWSIMLEVSESSMKPVNQETILADCIQGLVNTEMLKPTDEIVSTYHRRFDHGYPTPTLEREGALTQILPKLQDKDIWSRGRFGSWRYEVGNQDHSFMLGVEAVDNIVNGAVELTLNYPDFVNGRQNTERRLVDGAQVFAKSKAQ
B2: R327K-AfUGM (enzyme, Aspergillus fumigatus)
chain: B1 chain with K181R, R326K

Molecular target: the molecule itself
Assay: crystal structure

| Protein | stoichiometry N |
| --- | --- |
| B1 | 4 |
| B2 | 4 |
